Data published in PMC10123652, “An Antibody Targeting Fibroblast Activation Protein Simultaneously Fused to Interleukin-2 and Tumor Necrosis Factor Selectively Localizes to Neoplastic Lesions” (Antibodies, 2023).

Experiments:
IL2-7NP2-TNF^mut (human) = assay: SEC; Superdex 200 Increase 10/300 GL; purified protein dialyzed against PBS pH 7.4; IgG (150 kDa) and SIP (80 kDa) as controls
[1] = molecular target: T1, recombinant human fibroblast activation protein (FAP) (Homo sapiens, UniProt Q12884); assay: ELISA; plate coated with 0.1 µM human FAP overnight at 4 °C in 50 mM HEPES, 100 mM NaCl, pH 7.4; serial dilutions of IL2-7NP2-TNF^mut in 2% milk-PBS, 4 h at RT; detection with Protein A-HRP; triplicate; settings: both partners purified
T1 construct: also called human FAP antigen; hFAP
T1 sequence (Q12884 whole entry): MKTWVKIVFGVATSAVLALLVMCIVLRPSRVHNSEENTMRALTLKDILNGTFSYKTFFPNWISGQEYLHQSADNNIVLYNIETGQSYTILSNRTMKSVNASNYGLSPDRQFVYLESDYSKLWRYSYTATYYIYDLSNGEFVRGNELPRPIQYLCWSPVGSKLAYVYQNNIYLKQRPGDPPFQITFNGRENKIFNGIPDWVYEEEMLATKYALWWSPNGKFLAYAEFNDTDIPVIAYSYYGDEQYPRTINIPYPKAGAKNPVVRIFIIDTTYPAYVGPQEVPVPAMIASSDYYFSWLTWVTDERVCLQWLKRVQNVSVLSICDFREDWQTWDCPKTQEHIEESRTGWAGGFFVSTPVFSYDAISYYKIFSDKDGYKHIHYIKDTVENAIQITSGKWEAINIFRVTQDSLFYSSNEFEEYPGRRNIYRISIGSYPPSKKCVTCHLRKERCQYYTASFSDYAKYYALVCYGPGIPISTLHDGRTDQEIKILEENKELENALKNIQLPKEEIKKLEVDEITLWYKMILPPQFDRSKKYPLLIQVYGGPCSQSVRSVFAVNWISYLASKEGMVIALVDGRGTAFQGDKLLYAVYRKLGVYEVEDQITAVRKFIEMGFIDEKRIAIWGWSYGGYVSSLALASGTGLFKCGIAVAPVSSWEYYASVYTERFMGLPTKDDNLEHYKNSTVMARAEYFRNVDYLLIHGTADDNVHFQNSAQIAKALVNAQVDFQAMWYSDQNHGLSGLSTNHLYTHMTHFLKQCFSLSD

B1: IL2-7NP2-TNF^mut (other, human)
VH: EVQLLESGGGLVQPGGSLRLSCAASGFTFSSYAMSWVRQAPGKGLEWVSAIGSVGGPTYYADSVKGRFTISRDNSKNTLYLQMNSLRAEDTAVYYCAKRLAWFDYWGQGTLVTVSS
VL: EIVLTQSPGTLSLSPGERATLSCRASQSVSSSYLAWYQQKPGQAPRLLIYGASSRATGIPDRFSGSGSGTDFTLTISRLEPEDFAVYYCQQSGKGPLTFGQGTKVEIK
notes: wild-type human interleukin-2 (IL2), N-terminal moiety of the fusion; mutated version of human TNF (TNFα); Non-covalent homotrimer; also called dual-cytokine antibody fusion protein
B1 gave a stoichiometry N (IL2-7NP2-TNF^mut (human)) of 3 and a Kd [1] of roughly 0.1 nM.
